Test results: patent publication US5624818, “Nucleic acids encoding regulatory proteins that dimerize with Mad or Max” (Fred Hutchinson Cancer Research Center)

Columns and labels:
[1] = molecular target: c-Myc:Max heterodimer (Homo sapiens, UniProt P01106-1;P61244-2 P01106-1:1-439,P61244-2:1-151); assay: EMSA; supershifted by anti-Myc and anti-Max; 3 mM MgCl2, 50 mM KCl, RT; 5-fold excess cold CM-1 competes; settings: label: 32P
Method: The DNA-binding reaction was allowed to proceed at room temperature for 10 minutes.
FIG. 7A: the ability of in vitro translated Myc and Max proteins to bind to the CM-1 oligonucleotide (CACGTG core consensus) was assessed by electrophoretic mobility shift assay. […] Lysates were incubated with ^32P-labeled CM-1 prior to resolution in a 5 percent acrylamide gel. In experiments where antibodies were added, affinity purified antibody (1 mg) was added after formation of the nucleoprotein complex to minimize steric interference. To block the antibody effect, cognate immunogen (1 mg) was added.

[2] = molecular target: Mad-1-His6 full length (Homo sapiens, UniProt Q05195 SEQ:1-221); assay: EMSA; no Max present; settings: tags: C-terminal His6 (pET11D); label: 32P
[3] = molecular target: GST-C92Myc:Max heterodimer (Homo sapiens, UniProt P01106;P61244-2 P01106:363-454,P61244-2:1-151); assay: EMSA; heterodimer favored over Max:Max; settings: tags: GST on Myc; label: 32P
Method: The ability of Mad-1 to bind DNA and interact with Max and Myc was examined by the electrophoretic mobility shift assay. […] Non-fusion GST protein was used as a control. […] As a control, the specificity of the electrophoretic mobility shift was assayed by including antibodies to either Max (αMax), GST (αGST), or Myc (αMyc) to the binding reaction. The activity of these antibodies was inhibited by adding the appropriate immunoglobulin to the binding reaction ("+block"). The lanes marked "–" had no additional protein present in the binding reaction.
The ability of Mad-1 to bind DNA and interact with Max and Myc was examined by the EMSA. […] In each experiment the specificity of the mobility shift was assayed by including antibodies to either Max((xMax), GST((xGST) or Myc ((xMyc) were added to the binding reaction.

[4] = molecular target: c-Myc deltaN100:Max (Homo sapiens, UniProt P01106-1;P61244-2 P01106-1:101-439,P61244-2:1-151, c-Myc deletion of N-terminal 100 aa); assay: EMSA; settings: label: 32P
Sequence of c-Myc deltaN100:Max (P01106 116-454, stated change not applied, chain 1 of 2): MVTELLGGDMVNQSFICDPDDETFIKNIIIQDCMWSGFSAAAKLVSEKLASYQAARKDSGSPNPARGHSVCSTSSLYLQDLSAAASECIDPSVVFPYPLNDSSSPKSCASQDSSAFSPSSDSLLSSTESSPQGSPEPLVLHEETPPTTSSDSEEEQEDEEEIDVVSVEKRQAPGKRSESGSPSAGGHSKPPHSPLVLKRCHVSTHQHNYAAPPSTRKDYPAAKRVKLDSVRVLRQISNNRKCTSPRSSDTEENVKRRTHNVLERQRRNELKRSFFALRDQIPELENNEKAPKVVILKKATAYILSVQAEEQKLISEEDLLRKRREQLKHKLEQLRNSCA
Sequence of c-Myc deltaN100:Max (P61244 other isoform, or with tags, fused parts or gaps c-Myc deletion of N-terminal 100 aa | mutant, chain 2 of 2): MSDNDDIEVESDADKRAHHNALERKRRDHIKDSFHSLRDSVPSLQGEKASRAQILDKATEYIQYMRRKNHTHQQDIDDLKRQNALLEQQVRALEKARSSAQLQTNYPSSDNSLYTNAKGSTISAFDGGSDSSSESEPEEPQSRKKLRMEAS
Method: FIG. 7A: the ability of in vitro translated Myc and Max proteins to bind to the CM-1 oligonucleotide (CACGTG core consensus) was assessed by electrophoretic mobility shift assay. […] Lysates were incubated with ^32P-labeled CM-1 prior to resolution in a 5 percent acrylamide gel. In experiments where antibodies were added, affinity purified antibody (1 mg) was added after formation of the nucleoprotein complex to minimize steric interference. To block the antibody effect, cognate immunogen (1 mg) was added. […] CM-1 oligonucleotide alone (probe) and unprogrammed reticulocyte lysate (RL) served as background controls. FIG. 7B: The specificity of the Myc-Max shift was tested by competition with 5-, 50-, and 500-fold excess of unlabeled oligonucleotide. […] FIG. 7C: Requirements for the formation of a nucleoprotein complex. Various c-Myc mutants (see FIG. 4 discussion for abbreviations) were assayed for their ability to bind CM-1 in association with Max.
To ascertain whether the association of Myc and Max in a nucleoprotein complex required the same sequences, some of the c-Myc mutants were examined for their ability to bind to CM-1 in a complex with Max.

Sequence of Mad-1-His6 full length (Q05195 whole entry): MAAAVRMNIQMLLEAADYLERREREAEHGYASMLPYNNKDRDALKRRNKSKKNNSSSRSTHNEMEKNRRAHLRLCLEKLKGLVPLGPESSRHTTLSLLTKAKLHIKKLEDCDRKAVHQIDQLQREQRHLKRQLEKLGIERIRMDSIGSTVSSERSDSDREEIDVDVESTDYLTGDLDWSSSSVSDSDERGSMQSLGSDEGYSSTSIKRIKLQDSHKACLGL
Sequence of GST-C92Myc:Max heterodimer (P01106 363-454, chain 1 of 2): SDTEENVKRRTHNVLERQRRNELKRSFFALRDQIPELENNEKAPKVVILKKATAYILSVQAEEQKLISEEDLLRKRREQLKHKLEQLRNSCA
Sequence of GST-C92Myc:Max heterodimer (P61244 other isoform, or with tags, fused parts or gaps, chain 2 of 2): as the sequence (P61244 other isoform, or with tags, fused parts or gaps c-Myc deletion of N-terminal 100 aa | mutant, chain 2 of 2) above
Sequence of c-Myc:Max heterodimer (P01106 16-454, chain 1 of 2): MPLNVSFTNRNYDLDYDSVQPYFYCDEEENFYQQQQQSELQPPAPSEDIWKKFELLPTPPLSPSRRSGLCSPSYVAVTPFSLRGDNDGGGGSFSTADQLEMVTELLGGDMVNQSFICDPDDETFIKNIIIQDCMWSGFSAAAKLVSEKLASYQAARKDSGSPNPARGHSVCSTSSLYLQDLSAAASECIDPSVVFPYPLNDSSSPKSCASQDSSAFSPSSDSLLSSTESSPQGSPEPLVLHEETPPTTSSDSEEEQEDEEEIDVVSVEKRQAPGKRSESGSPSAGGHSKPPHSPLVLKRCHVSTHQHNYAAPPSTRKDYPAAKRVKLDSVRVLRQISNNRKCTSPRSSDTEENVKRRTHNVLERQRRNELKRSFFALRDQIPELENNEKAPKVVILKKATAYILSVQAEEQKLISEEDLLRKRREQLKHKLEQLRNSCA
Sequence of c-Myc:Max heterodimer (P61244 other isoform, or with tags, fused parts or gaps, chain 2 of 2): as the sequence (P61244 other isoform, or with tags, fused parts or gaps c-Myc deletion of N-terminal 100 aa | mutant, chain 2 of 2) above

B1: CM-1 (dsDNA)
DNA 1: CCCCCACCACGTGGTGCCTGA
DNA 2: TCAGGCACCACGTGGTGGGGG
binding result [1]: binds | binding result [2]: no binding | binding result [3]: binds | binding result [4]: binds
